# In patent US20210032365A1 (Chugai, published 2021):
# T1: human C1s (human, UniProt P09871 16-688)
# T1 construct: Analyte in the Biacore assays; also called hC1s; serum-derived human C1s (CompTech)
# T1 sequence: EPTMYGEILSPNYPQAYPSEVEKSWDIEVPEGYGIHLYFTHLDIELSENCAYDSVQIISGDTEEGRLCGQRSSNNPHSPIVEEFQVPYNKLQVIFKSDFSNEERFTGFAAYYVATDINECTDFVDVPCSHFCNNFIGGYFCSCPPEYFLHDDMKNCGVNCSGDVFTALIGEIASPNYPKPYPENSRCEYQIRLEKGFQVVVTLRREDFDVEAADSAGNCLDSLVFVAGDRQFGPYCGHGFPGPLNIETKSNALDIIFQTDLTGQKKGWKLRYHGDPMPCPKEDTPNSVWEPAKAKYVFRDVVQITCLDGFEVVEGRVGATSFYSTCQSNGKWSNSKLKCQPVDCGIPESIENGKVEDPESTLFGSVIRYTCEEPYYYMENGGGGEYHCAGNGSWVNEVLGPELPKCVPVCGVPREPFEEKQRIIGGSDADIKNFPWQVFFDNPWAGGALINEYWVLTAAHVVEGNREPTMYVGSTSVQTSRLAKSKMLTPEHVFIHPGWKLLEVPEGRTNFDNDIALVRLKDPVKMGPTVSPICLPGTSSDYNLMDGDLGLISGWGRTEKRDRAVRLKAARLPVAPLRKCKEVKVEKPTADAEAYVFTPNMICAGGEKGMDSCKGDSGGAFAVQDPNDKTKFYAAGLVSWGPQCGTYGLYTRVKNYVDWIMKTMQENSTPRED
# What was measured:
# human C1s [1] = molecular target: T1, human C1s; test: SPR; KD at pH 5.8 (3 uM Ca) over KD at pH 7.4 (1.2 mM Ca)
# Description: (§1) Each antibody was captured onto the sensor surface by protein A/G. Antibody capture levels were aimed at 200 resonance unit (RU). Serum-derived human C1s (CompTech) or recombinant C1s prepared in EXAMPLE 1 was injected at 50 nM, followed by dissociation. The sensor surface was regenerated in each cycle with 10 mM Glycine-HCl, pH 1.5. […] The ratio of KD 5.8+ to KD 7.4+(“KD 5+/7+”) and that of KD 5.8− to KD 7.4+(“KD 5−/7+”) were calculated. When the KD 5+/7+ or KD 5−/7+ of a variant is larger than that of the parent antibody IPN009VH2-SG4GK/IPN009VK3-SK1, that variant is considered to be “pH”- or “pH and Ca”-dependent, respectively. When binding response in 5(+) buffer and/or in 5(−) buffer of a variant is much lower than that of IPN09VH2/IPN009VK3, that variant is also considered as “pH”- and/or “pH and Ca”-dependent. Therefore, such mutations are effective to generate “pH”- and/or “pH and Ca”-dependent antibody. To further enhance “pH” and/or “pH and Ca” dependency, a combination of histidine mutations was conducted. Antibodies with combinations of histidine mutations were evaluated using Biacore by the method described above.
# (§2) C1_1IPN92H0033 (SEQ ID NO: 17)-SG4GK/IPN93L0024 (SEQ ID NO: 18)-SK1 (IPN92H0033/IPN93L0024) was selected for further optimization. Histidine, Lysine, Arginine, aspartic acid, glutamic acid, and glutamine scanning was conducted for CDRs and certain positions of FRs of IPN92H0033/IPN93L0024. Variants with a mutation were generated and purified, and evaluated using Biacore by the method mentioned above. All variants were evaluated using Biacore as mentioned above. Mutations that improved “pH” and/or “pH and Ca” dependency were selected for the combination.
# human C1s [2] = molecular target: T1, human C1s; test: SPR; KD at pH 5.8 (1.2 mM Ca) over KD at pH 7.4 (1.2 mM Ca)
# Description: as §1, §2
# human C1s [3] = molecular target: T1, human C1s; test: SPR (Biacore T200, 37C), Ab captured on protein A/G; pH 5.8, 3 uM Ca
# Description: as §1, §2
# human C1s [4] = molecular target: T1, human C1s; test: SPR (Biacore T200, 37C), Ab captured on protein A/G; pH 5.8, 1.2 mM Ca
# Description: as §1, §2
KD 5(-)/7(+) (human C1s [1]),KD 5(+)/7(+) (human C1s [2]),Kd (human C1s [3]) [nM],koff (human C1s [3]) [s⁻¹],kon (human C1s [3]) [M⁻¹ s⁻¹],Kd (human C1s [4]) [nM],koff (human C1s [4]) [s⁻¹],kon (human C1s [4]) [M⁻¹ s⁻¹],Binder
3.57,8.1,7.36,0.00401,544000,16.6,0.00699,421000,"C1_IPN92H0159-SG4GK/IPN93L0024-SK1 (antibody, human IgG4 S228P, kappa, name in Kabat numbering, V domains shown, Substitutions from IPN009VH2, Kabat numbering; also called IPN92H0159/IPN93L0024) VH: EVMLVESGGGLVKPGGSLRLSCAASGFTFSNYAMSWVRQAPGKGLEWVATISSGGSHTYDLDSVKGRFTISRDNSKDTLYLQMNSLRAEDTALYYCARLFTGHAMDYWGQGTLVTVSS VL: QIVLTQSPATLSLSPGERATLSCTASSSVSSSYLHWYQQKPGKAPKLWIYSTSNLASGVPSRFSGSGSGTDYTLTISSLQPEDFATYYCHQYYRLHPITFGQGTKLEIKR"
2.07,4,4.21,0.0106,2.53e+06,8.21,0.00413,504000,"C1_IPN92H0188-SG4GK/IPN93L0024-SK1 (antibody, human IgG4 S228P, kappa, name in Kabat numbering, V domains shown, Substitutions from IPN009VH2, Kabat numbering; also called IPN92H0188/IPN93L0024) VH: EVMLVESGGGLVKPGGSLRLSCAASGFTFSNYAMSWVRQAPGKGLEWVATISSGGSHTYYLDSVDGRFTISRDNSKDTLYLQMNSLRAEDTALYYCARLFTGHAMDYWGQGTLVTVSS VL: QIVLTQSPATLSLSPGERATLSCTASSSVSSSYLHWYQQKPGKAPKLWIYSTSNLASGVPSRFSGSGSGTDYTLTISSLQPEDFATYYCHQYYRLHPITFGQGTKLEIKR"
7.29,6.5,6.45,0.00517,802000,5.72,0.00429,751000,"C1_IPN92H0194-SG4GK/IPN93L0024-SK1 (antibody, human IgG4 S228P, kappa, name in Kabat numbering, V domains shown, Substitutions from IPN009VH2, Kabat numbering; also called IPN92H0194/IPN93L0024) VH: EVMLVESGGGLVKPGGSLRLSCAASGFTFSNYAMSWVRQAPGKGLEWVATISSGGSHTYYLDSVKERFTISRDNSKDTLYLQMNSLRAEDTALYYCARLFTGHAMDYWGQGTLVTVSS VL: QIVLTQSPATLSLSPGERATLSCTASSSVSSSYLHWYQQKPGKAPKLWIYSTSNLASGVPSRFSGSGSGTDYTLTISSLQPEDFATYYCHQYYRLHPITFGQGTKLEIKR"
4.06,7.4,5.28,0.00674,1.28e+06,9.59,0.00544,568000,"C1_IPN92H0231-SG4GK/IPN93L0024-SK1 (antibody, human IgG4 S228P, kappa, name in Kabat numbering, V domains shown, Substitutions from IPN009VH2, Kabat numbering; also called IPN92H0231/IPN93L0024) VH: EVMLVESGGGLVKPGGSLRLSCAASGFTFSNYAMSWVRQAPGKGLEWVATISSGGSHTYYLDSVKGRFTISRDNSKDTLYLQMNSLRAEDTALYYCARLFTKHAMDYWGQGTLVTVSS VL: QIVLTQSPATLSLSPGERATLSCTASSSVSSSYLHWYQQKPGKAPKLWIYSTSNLASGVPSRFSGSGSGTDYTLTISSLQPEDFATYYCHQYYRLHPITFGQGTKLEIKR"
210,12.6,25.4,0.0147,578000,1.52,0.000717,471000,"C1_IPN92H0253-SG4GK/IPN93L0024-SK1 (antibody, human IgG4 S228P, kappa, name in Kabat numbering, V domains shown, Substitutions from IPN009VH2, Kabat numbering; also called IPN92H0253/IPN93L0024) VH: EVMLVESGGGLVKPGGSLRLSCAASGFTFSNYAMSWVRQAPGKGLEWVATISSGGSHTYYLDSVKGRFTISRDNSKDTLYLQMNSLRAEDTALYYCARLFTGHAMKYWGQGTLVTVSS VL: QIVLTQSPATLSLSPGERATLSCTASSSVSSSYLHWYQQKPGKAPKLWIYSTSNLASGVPSRFSGSGSGTDYTLTISSLQPEDFATYYCHQYYRLHPITFGQGTKLEIKR"
3.47,6.2,3.21,0.0685,2.14e+07,5.74,0.00417,727000,"C1_IPN92H0193-SG4GK/IPN93L0024-SK1 (antibody, human IgG4 S228P, kappa, name in Kabat numbering, V domains shown, Substitutions from IPN009VH2, Kabat numbering; also called IPN92H0193/IPN93L0024) VH: EVMLVESGGGLVKPGGSLRLSCAASGFTFSNYAMSWVRQAPGKGLEWVATISSGGSHTYYLDSVKDRFTISRDNSKDTLYLQMNSLRAEDTALYYCARLFTGHAMDYWGQGTLVTVSS VL: QIVLTQSPATLSLSPGERATLSCTASSSVSSSYLHWYQQKPGKAPKLWIYSTSNLASGVPSRFSGSGSGTDYTLTISSLQPEDFATYYCHQYYRLHPITFGQGTKLEIKR"
4.82,9,7.32,0.00411,562000,13.7,0.00634,461000,"C1_IPN92H0160-SG4GK/IPN93L0024-SK1 (antibody, human IgG4 S228P, kappa, name in Kabat numbering, V domains shown, Substitutions from IPN009VH2, Kabat numbering; also called IPN92H0160/IPN93L0024) VH: EVMLVESGGGLVKPGGSLRLSCAASGFTFSNYAMSWVRQAPGKGLEWVATISSGGSHTYELDSVKGRFTISRDNSKDTLYLQMNSLRAEDTALYYCARLFTGHAMDYWGQGTLVTVSS VL: QIVLTQSPATLSLSPGERATLSCTASSSVSSSYLHWYQQKPGKAPKLWIYSTSNLASGVPSRFSGSGSGTDYTLTISSLQPEDFATYYCHQYYRLHPITFGQGTKLEIKR"
2.72,6.4,4.89,0.00784,1.6e+06,11.5,0.00524,456000,"C1_IPN92H0162-SG4GK/IPN93L0024-SK1 (antibody, human IgG4 S228P, kappa, name in Kabat numbering, V domains shown, Substitutions from IPN009VH2, Kabat numbering; also called IPN92H0162/IPN93L0024) VH: EVMLVESGGGLVKPGGSLRLSCAASGFTFSNYAMSWVRQAPGKGLEWVATISSGGSHTYKLDSVKGRFTISRDNSKDTLYLQMNSLRAEDTALYYCARLFTGHAMDYWGQGTLVTVSS VL: QIVLTQSPATLSLSPGERATLSCTASSSVSSSYLHWYQQKPGKAPKLWIYSTSNLASGVPSRFSGSGSGTDYTLTISSLQPEDFATYYCHQYYRLHPITFGQGTKLEIKR"
4.62,2.1,8.18,0.715,8.74e+07,3.74,0.00228,608000,"C1_IPN92H0165-SG4GK/IPN93L0024-SK1 (antibody, human IgG4 S228P, kappa, name in Kabat numbering, V domains shown, Substitutions from IPN009VH2, Kabat numbering; also called IPN92H0165/IPN93L0024) VH: EVMLVESGGGLVKPGGSLRLSCAASGFTFSNYAMSWVRQAPGKGLEWVATISSGGSHTYYDDSVKGRFTISRDNSKDTLYLQMNSLRAEDTALYYCARLFTGHAMDYWGQGTLVTVSS VL: QIVLTQSPATLSLSPGERATLSCTASSSVSSSYLHWYQQKPGKAPKLWIYSTSNLASGVPSRFSGSGSGTDYTLTISSLQPEDFATYYCHQYYRLHPITFGQGTKLEIKR"
3.84,2.1,6.75,0.687,1.02e+08,3.77,0.00226,600000,"C1_IPN92H0166-SG4GK/IPN93L0024-SK1 (antibody, human IgG4 S228P, kappa, name in Kabat numbering, V domains shown, Substitutions from IPN009VH2, Kabat numbering; also called IPN92H0166/IPN93L0024) VH: EVMLVESGGGLVKPGGSLRLSCAASGFTFSNYAMSWVRQAPGKGLEWVATISSGGSHTYYEDSVKGRFTISRDNSKDTLYLQMNSLRAEDTALYYCARLFTGHAMDYWGQGTLVTVSS VL: QIVLTQSPATLSLSPGERATLSCTASSSVSSSYLHWYQQKPGKAPKLWIYSTSNLASGVPSRFSGSGSGTDYTLTISSLQPEDFATYYCHQYYRLHPITFGQGTKLEIKR"
3.46,5.7,5.19,0.0173,3.23e+06,8.49,0.00485,570000,"C1_IPN92H0232-SG4GK/IPN93L0024-SK1 (antibody, human IgG4 S228P, kappa, name in Kabat numbering, V domains shown, Substitutions from IPN009VH2, Kabat numbering; also called IPN92H0232/IPN93L0024) VH: EVMLVESGGGLVKPGGSLRLSCAASGFTFSNYAMSWVRQAPGKGLEWVATISSGGSHTYYLDSVKGRFTISRDNSKDTLYLQMNSLRAEDTALYYCARLFTRHAMDYWGQGTLVTVSS VL: QIVLTQSPATLSLSPGERATLSCTASSSVSSSYLHWYQQKPGKAPKLWIYSTSNLASGVPSRFSGSGSGTDYTLTISSLQPEDFATYYCHQYYRLHPITFGQGTKLEIKR"
